Data as given in publication PMC9103184, “Kunitz-Type Peptides from Sea Anemones Protect Neuronal Cells against Parkinson’s Disease Inductors via Inhibition of ROS Production and ATP-Induced P2X7 Receptor Activation” (International Journal of Molecular Sciences, 2022).

How the values were obtained:
[1] = CD spectroscopy, secondary structural elements (Provencher–Glockner); type: physicochemical; parameters: unit not given here; conditions: deionized water, Provencher–Glockner method
Excerpt: To calculate secondary structural elements of peptides, circular dichroism (CD) spectroscopy was applied. CD spectroscopy is a fast, well-established, and widely used analytical technique to study secondary structures of proteins and their changes in different environments. According to Figure 3, all spectra in the far UV region (190–240 nm) have similar profiles and are characterized by a positive maximum peak at 193 nm and negative minimum peaks at 202 and 225 nm. […] The peptides have an approximately equal content of secondary structural elements, while a slight increase in α-helixes and decrease in β-structure were found in HCIQ1c9 (Table 1), which might be reflected in the spatial structure and biological activity of the peptide.
Circular dichroism (CD) spectra were recorded on a Chirascan-Plus CD spectropolarimeter (Applied Photophysics, Leatherhead, UK) in quartz cuvettes with an optical path length of 0.1 cm for the peptide spectrum region. The peptides were dissolved in deionized water ([…]) and incubated at temperatures ranging from 25 °C to 100 °C for 20–25 min before recording the CD spectra. The secondary structure elements were calculated using the Provencher–Glockner method using advanced Provencher calculation programs from the CDPro software package (Leatherhead, UK).

[2] = tested on: Neuro-2a cells; assay: Paraquat-induced ROS formation (H2DCF-DA); type: cell-based, murine; conditions: peptide 0.01 μM, 600 μM paraquat 3 h, means ± SE
Description: (§1) Figure 8 Effects of the peptides on intracellular ROS and NO formation. The effects of the peptides on ROS formation into Neuro-2a cells treated by 600 μM paraquat (a) and 10 μM rotenone (b). The effects of peptides on NO formation into the cells treated by 600 μM paraquat (c) and 10 μM rotenone (d). Cells were incubated with peptides for 1 h at 37 °C, then 3 or 1 h with paraquat or rotenone, respectively. The data are shown as the means ± SE; *—p < 0.05, **—p < 0.01, #—p < 0.05 when comparing concentrations of the same peptide.
(§2) Neuro-2a cells were incubated with peptides at concentrations of 0.01, 0.1, and 1 µM for 1 h. Then, paraquat (600 μM) or rotenone (10 µM) was added to each well and cells were incubated for 3 or 1 h, respectively. To study the ROS formation, the 2,7-dichlorodihydrofluorescein diacetate (H2DCF-DA) assay was performed according to the manufacturer’s instructions (Molecular Probes, Eugene, OR, USA). […]
(§3) To determine the NO production, a 4-amino-5-methylamino-2′,7′-difluorofluorescein diacetate (DAF-FM) assay was performed according to the manufacturer’s instructions (Invitrogen, Carlsbad, CA, USA). […] In both cases, the fluorescence intensity was measured using a PHERAstar FS high-speed plate reader (BMG Labtech, Ortenberg, Germany) at λex = 485 nm and λem = 518 nm. […]

[3] = tested on: Neuro-2a cells; assay: Rotenone-induced ROS formation (H2DCF-DA); type: cell-based, murine; conditions: peptide 0.01 μM, 10 μM rotenone 1 h, means ± SE
Description: as §1, §2, §3

[4] = tested on: P2X7R; assay: ATP-induced YO-PRO-1 uptake in Neuro-2a cells; type: cell-based, murine; conditions: 0.01–1.0 μM, 4 mM ATP
Description: Figure 11 The effects of the peptides on ATP-induced Neuro-2a cell viability and activation of P2X7R. (a) Impact of the peptides on Neuro-2a cell viability in the presence of 4 mM ATP. The peptides were tested at concentrations of 0.01, 0.1, and 1.0 μM. Cells were incubated with peptides for 1 h at 37 °C, then for 48 h with ATP. (b) Effects of the peptides (0.01, 0.1, and 1.0 μM) on YO-PRO-1 uptake in Neuro-2a cells. ATP was used as a P2X7R agonist. A438079 (10 μM) was used as a standard inhibitor of P2X7R. The peptide effects were evaluated against the effects of ATP. The data are shown as means ± SE; *—p < 0.05 compared to the effect of ATP alone.
For the uptake measurements of the large cationic dye YO-PRO-1, the peptides at final concentrations of 0.01, 0.1, and 1.0 μM were added to the culture medium with Neuro-2a cells and further incubated for 1 h at 37 °C with 5% CO2. Then, the cells were washed once with Hanks’ balanced salt solution (HBSS) (140 mM NaCl, 5 mM KCl, 0.8 mM MgCl2, 2 mM CaCl2, 10 mM glucose, 10 mM HEPES, pH 7.4) and filled with 180 μL of the same buffer. YO-PRO-1 (Sigma-Aldrich, St. Louis, MO, USA) was loaded into the wells to a final concentration of 5 μM, the cells were incubated for 15 min at 37 °C, then ATP was added to a final concentration of 4 mM and the plates were incubated for an additional 10 min. Then, the cells were washed three times with the buffer solution and the fluorescence intensity levels were measured with a PHERAstar FS plate reader (BMG, Germany) at λex = 480 nm and λem = 520 nm. A438079 (10 μM), a standard inhibitor of P2X7R, was used as positive control. The effectiveness of the peptides was evaluated relative to the control with ATP.

[5] = tested on: Neuro-2a cells; conditions: cited from earlier work
Description: The peptides were tested for cell viability in in vitro 6-OHDA-, rotenone-, paraquat-, and MPP^+-induced Parkinson’s disease models. All peptides were non-toxic on Neuro-2a cells at a concentrations up to 10 µM (Figure S2). The viability of neurotoxin-treated cells was about 65% versus control (Figure 7).

[6] = tested on: serine proteinases; conditions: cited from earlier work
Excerpt: A new peptide, HCIQ1c9, with Gly17Arg at position P1’ of the reactive site was also found in a combinatorial library of H. crispa Kunitz-type peptides and produced in E. coli. Thus, in this work four isoforms of Kunitz-type peptides with point a.a. substitutions were studied in various in vitro models.

HCIQ2c1: recombinant Kunitz-type peptide from Heteractis crispa, UniProtKB ID A0A6B7FBD3 (IQGNICSEPKKVGRCRGSFPRFYFDSETGKCTPFIYGGCGGNGNNFETLHACRAICRA; UniProt A0A6B7FBD3 28-85, looked up)
Unordered Structure [1]: 35.7 | β-Turn [1]: 19.0 | α-Helix II ([1]; irregular structure): 13.9 | β-Structure II ([1]; irregular structure): 6.9 | β-Structure I ([1]; regular structure): 17.4 | α-Helix I ([1]; regular structure, far UV 190–240 nm): 7.1 | α-Helix III ([1]; summary value): 21.0 | β-Structure III ([1]; summary value): 24.3 | decrease in paraquat-induced ROS level [2]: 30.7 ± 1.8% | decrease in rotenone-induced ROS level [3]: 22.0 ± 7.3% | inhibition of ATP-induced YO-PRO-1 uptake [4]: inhibited ATP-induced dye uptake, but their effects were not statistically significant | increase in viability of 6-OHDA-treated cells [5]: 47% | protection against 6-OHDA compared with HCIQ4c7 [5]: stronger neuroblastoma cell viability against 6-OHDA than HCIQ4c7 | interaction with serine proteinases [6]: interact with several serine proteinases, including inflammatory ones
